Positions count from the first letter of the chain named. Names and notes keep the numbering of the source.
T1: GSDMB (residues 1-411) (human, UniProt Q8TAX9-1 1-411)
T1 chain: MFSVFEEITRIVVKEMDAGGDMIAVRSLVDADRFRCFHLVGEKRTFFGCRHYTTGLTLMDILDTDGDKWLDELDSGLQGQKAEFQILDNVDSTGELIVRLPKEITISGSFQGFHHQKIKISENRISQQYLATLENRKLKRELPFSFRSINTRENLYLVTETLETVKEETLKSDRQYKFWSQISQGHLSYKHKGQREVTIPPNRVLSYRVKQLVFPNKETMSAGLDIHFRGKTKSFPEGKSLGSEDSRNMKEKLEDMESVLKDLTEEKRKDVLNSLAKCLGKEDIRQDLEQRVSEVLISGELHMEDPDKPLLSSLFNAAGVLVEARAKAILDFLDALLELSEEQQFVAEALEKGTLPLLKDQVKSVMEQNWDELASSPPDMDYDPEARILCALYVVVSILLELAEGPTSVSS

T2: GSDMB (residues 1-411) (human, UniProt Q8TAX9-1 1-411)
T2 construct: residues 1-411; For the crystal the complex was obtained by co-transforming the GSDMB and IpaH7.8 plasmids; limits 1-411 are stated for the crystallised protein; also called gasdermin B; WT GSDMB; source: E. coli BL21 (DE3), purified (Ni-NTA, anion exchange, SEC); not shown: His, N-terminal, cleaved; MBP, N-terminal, cleaved
T2 sequence: T1 chain

B1: human GSDMD (natural protein)
chain: MGSAFERVVRRVVQELDHGGEFIPVTSLQSSTGFQPYCLVVRKPSSSWFWKPRYKCVNLSIKDILEPDAAEPDVQRGRSFHFYDAMDGQIQGSVELAAPGQAKIAGGAAVSDSSSTSMNVYSLSVDPNTWQTLLHERHLRQPEHKVLQQLRSRGDNVYVVTEVLQTQKEVEVTRTHKREGSGRFSLPGATCLQGEGQGHLSQKKTVTIPSGSTLAFRVAQLVIDSDLDVLLFPDKKQRTFQPPATGHKRSTSEGAWPQLPSGLSMMRCLHNFLTDGVPAEGAFTEDFQGLRAEVETISKELELLDRELCQLLLEGLEGVLRDQLALRALEEALEQGQSLGPVEPLDGPAGAVLECLVLSSGMLVPELAIPVVYLLGALTMLSETQHKLLAEALESQTLLGPLELVGSLLEQSAPWQERSTMSLPPGLLGNSWGEGAPAWVLLDECGLELGEDTPHVCWEPQAQGRMCALYASLALLSGLSQEPH
notes: also called hGSDMD; WT hGSDMD; source: E. coli BL21 (DE3), purified (same protocol as GSDMB); not shown: His, N-terminal, cleaved; MBP, N-terminal, cleaved
B2: hGSDMD S124R (natural protein, human, UniProt P57764 1-484, looked up)
chain: B1 chain with S124R
notes: GSDMD, human, isoform 1 of UniProtKB P57764; construct as m34; also called hGSDMD bearing the S124R mutation; source: E. coli BL21 (DE3), purified (same protocol as GSDMB); not shown: His, N-terminal, cleaved; MBP, N-terminal, cleaved
B3: IpaH7.8 protein (residues 23–565) (enzyme)
chain: SNEHYLRILTEWEKNSSPGEERGIAFNRLSQCFQNQEAVLNLSDLNLTSLPELPKHISALIVENNKLTSLPKLPAFLKELNADNNRLSVIPELPESLTTLSVRSNQLENLPVLPNHLTSLFVENNRLYNLPALPEKLKFLHVYYNRLTTLPDLPDKLEILCAQRNNLVTFPQFSDRNNIRQKEYYFHFNQITTLPESFSQLDSSYRINISGNPLSTRVLQSLQRLTSSPDYHGPQIYFSMSDGQQNTLHRPLADAVTAWFPENKQSDVSQIWHAFEHEEHANTFSAFLDRLSDTVSARNTSGFREQVAAWLEKLSASAELRQQSFAVAADATESCEDRVALTWNNLRKTLLVHQASEGLFDNDTGALLSLGREMFRLEILEDIARDKVRTLHFVDEIEVYLAFQTMLAEKLQLSTAVKEMRFYGVSGVTANDLRTAEAMVRSREENEFTDWFSLWGPWHAVLKRTEADRWAQAEEQKYEMLENEYSQRVADRLKASGLSGDADAEREAGAQVMRETEQQIYRQLTDEVLALRLSENGSRLHHS
notes: IpaH7.8, type III secretion effector and E3 ubiquitin ligase of Shigella flexneri; residues 23-565; synthesized fragment; Limits 23-565 are stated for the SEC experiment; source: E. coli BL21 (DE3), purified (Ni-NTA, anion exchange, SEC); not shown: His, N-terminal, cleaved
B4: N-terminal LRR domain (residues 23–264) of IpaH7.8 (domain or fragment)
chain: SNEHYLRILTEWEKNSSPGEERGIAFNRLSQCFQNQEAVLNLSDLNLTSLPELPKHISALIVENNKLTSLPKLPAFLKELNADNNRLSVIPELPESLTTLSVRSNQLENLPVLPNHLTSLFVENNRLYNLPALPEKLKFLHVYYNRLTTLPDLPDKLEILCAQRNNLVTFPQFSDRNNIRQKEYYFHFNQITTLPESFSQLDSSYRINISGNPLSTRVLQSLQRLTSSPDYHGPQIYFSMSD

Key:
[1] = biological target: B3; assay: ITC; MicroCal PEAQ-ITC, 25 °C; IpaH7.8 proteins injected into the cell containing GSDMB or GSDMD proteins; 25 mM Tris-HCl pH 8.0, 150 mM NaCl unless otherwise stated (one titration of IpaH7.8 into GSDMB in a high salt buffer); details: both partners purified
[2] = biological target: T1, GSDMB (residues 1-411); assay: ITC
[3] = biological target: T2, GSDMB (residues 1-411); assay: ITC; MicroCal PEAQ-ITC, 25 °C; IpaH7.8 proteins injected into the cell containing GSDMB or GSDMD proteins; 25 mM Tris-HCl pH 8.0, 150 mM NaCl unless otherwise stated (one titration of IpaH7.8 into GSDMB in a high salt buffer); details: both partners purified
[4] = biological target: T1, GSDMB (residues 1-411); assay: ITC; 500 mM NaCl

| Binder | binding result [1] | Kd [2] | binding affinity in a high salt buffer against that in the standard buffer [3] | Kd [4] |
| --- | --- | --- | --- | --- |
| B1 | binds | – | – | – |
| B2 | binds | – | – | – |
| B3 | – | 94 nM | 0.5 fold | 163 nM |
| B4 | – | 90 nM | – | – |
